Assay results as given in PMC10532679 (Life, 2023).

Columns and labels:
[1] = biological target: T1, wild-type H6-PKA-Cα, untreated (alpha isoform of the catalytic subunit of cAMP-dependent protein kinase) (murine, UniProt P05132 2-351); experiment: SPR; OpenSPR-XT; CREBtide coupled (EDC/sulfo-NHS) to a carboxyl sensor, surface blocked with monomeric streptavidin and ethanolamine; PKA-Cα 0.078–10 µM flowed at 20 µL/min; 1X HBS-P+, 10 mM MgCl2, 0.01% NP-40, 0.5% BSA, 10 µM AMP-PNP, pH 7.4; equilibrium analysis; apparent; conditions: both partners purified
[2] = biological target: T1, wild-type H6-PKA-Cα, untreated (alpha …); experiment: SPR; OpenSPR-XT; CREBtide coupled to a carboxyl sensor; PKA-Cα flowed at 75 µL/min; 1X HBS-P+, 10 mM MgCl2, 0.01% NP-40, 0.5% BSA, 10 µM AMP-PNP, pH 7.4; kinetics analysis; apparent; conditions: both partners purified

Kd [1]: 3.3 ± 1 µM | Kd [2]: 2.8 ± 0.75 µM
B1: CREBtide (peptide)
peptide: KRREILSRRPSYR
notes: Coupled by EDC/sulfo-NHS to the carboxyl sensor in SPR; source: bought: Alfa Aesar
